Variants at the floor of the assay were thinned out.
B1: TPR 5TU (parent)
chain: GGAUCUUCUCGAUCUAACAAAAAAGACAAAUCUGCCACAAAGCUUGAGAGCAUCUUCGGAUGCAGAGGCGGCAGCCUUCGGUGGCGCGAUAGCGCCAACGUUCUCAACUAUGACACGCAAAACGCGUGCUCCGUUGAAUGGAGUUUAUCAUG

Variants of: B1
Assay: polymerase ribozyme fitness, log enrichment relative to wild type (log ratio); higher = more active; in vitro selection for triplet polymerase activity
Procedure, shortened: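 A heterodimeric triplet polymerase ribozyme had each of its subunits mutagenized by PCR into a library, which was transcribed. One round of in vitro selection, done in triplicate, annealed each library with a biotinylated primer, its partner subunit and triplets, then incubated it frozen at −7 °C before gel excision of extended constructs, streptavidin-bead capture and RT-PCR. Fitness is the logarithm of genotype enrichment relative to wild-type enrichment, based on Illumina sequencing of inputs and outputs and inverse-variance-weighted replicate averages. A base-2 logarithm is used, and genotypes were kept only with ≥10 input reads and ≥1 read per output.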

Variant	polymerase ribozyme fitness (log ratio)
A16C C18G A47U G92A U101A	≤ -4.2
A91G C95G	-3.67
A39G A137G	-3.57
C14U A24C U53A G67U C108U A150G	≤ -4.2
A19U A21U G86A C103U	-2.31
A73G G83A	-1.72
C51A G58A G74C C96U A107C	≤ -4.2
A12G U13G C38A A41U C95A U102C A137G	≤ -4.2
G92U C93A G133U G140A	≤ -4.2
C10U A21G A22G A40G C79A C85G A138U	≤ -4.2
U9G A16C A30C G34A G58U C93G C105A A110G C118U C149U	-4.17
U56A C149U	-0.627
G58A U82A A89U A119G A120U G126U	-0.897
U15C A49G C85U U109G	-0.987
A40C A41C G59A G70U G84A C85A C105G G141C G143U	≤ -4.2
U6A C35A C63U C69U C76A G83C	≤ -4.2
A16U C103G	-3.31
U53A G141U	0.504
G58C A60G C75U	0.32
A28U C57U G84U G94A A98U C116A A147C	≤ -4.2
C10A A17U C36U C76U G84U U101A U104G C108U A121C	≤ -4.2

Variant	polymerase ribozyme fitness (log ratio)
C35U A49G G88U C93G	≤ -4.2
G11C C116G	-0.794
C57U A113C	-2.27
G50C C87U C123A C125G	-3.47
C27U G68C A89G C93A A110G G136C	≤ -4.2
A28C A29U A107U A115G	≤ -4.2
A3C A28U U77A C93U C129A U148G	≤ -4.2
U82G G92A	-2.96
A17C G92C	0.012
A23U G42C C75U U82G G84U C96A	≤ -4.2
C79U C93A	-3.77
A24U G58C U104A G141U	-1.93
A19C C85U	-0.536
G68A C93U A98U G117U	≤ -4.2
G48A A52G G83U U101A C131A U148A	≤ -4.2
C27U C57A A66C G71A C96A U130A	≤ -4.2
U6G G68A	-3.62
C35U A49G G50A U77G C96U G143C A150G U151A	≤ -4.2
U9G U33G G59A G140U	≤ -4.2
G58A C75U C118G	-0.168
U31G G50A C87A U135A	≤ -4.2

Variant	polymerase ribozyme fitness (log ratio)
U4A C38U C57A A66G C96G C105A C123G G124A C129G	≤ -4.2
A12C G86C A106U A115U U144A	≤ -4.2
U53A U101G C125A	-0.788
A47U U56A C95U A119U U135A	-2.15
G48A C51U	-1.05
A19U C35U	-0.444
U61A G124C	-2
A22U G88C A147C	-4.19
G34U C95U A107G A110G	-3.86
A119C	-0.385
U53A C63U C99G	-3.81
A20G A28G U90A C93A C95G A106U C123U	≤ -4.2
C57U G94U C118U G143U	≤ -4.2
A60U G143A	-1.07
G50A C76U C96A A121G	-1.1
U109G A142C	-2.18
A29U G92A A142C	≤ -4.2
C63U G83C U102A A142G A150C	≤ -4.2
C27A U45A C87U A138C	≤ -4.2
A12U C85G	-1.91
G80C G83U C118A G141C	-3.94

Variant	polymerase ribozyme fitness (log ratio)
C35U G140C	-4.13
A30C C75G C103G	≤ -4.2
G74C C105U A107G	≤ -4.2
C69G U101G G133U	-3.95
C85A U145G	-1.06
C108G G136A A147C	≤ -4.2
A21C G25A U127G	≤ -4.2
C27G U53A U102A	≤ -4.2
G62U U77A G86U C99G	≤ -4.2
A24U G25C A28G A30G A49U G83A C87A	≤ -4.2
U9G G50A G83A G133U	≤ -4.2
U4A C8A U56A A122G G141A	-4.11
A24U C32A	-3.85
U4G A49G C87G	≤ -4.2
G42U G84U G117U C118G A142G	≤ -4.2
C27U C87A	≤ -4.2
G48C G58C C63A G74C G81A A89U A137C	≤ -4.2
G59C A147C	-0.516
U13A U135A	-0.229
G83U C105G A107G U135G G152C	≤ -4.2
